According to the Human Domainome abundance scans (Beltran et al. 2025):

B1: COUP transcription factor 1, residues 83 to 159; numbered along this chain, P10589 (parent)
chain: HIECVVCGDKSSGKHYGQFTCEGCKSFFKRSVRRNLTYTCRANRNCPIDQHHRNQCQYCRLKKCLKVGMRREAVQRG
B2: Double-stranded RNA-specific adenosine deaminase, residues 296 to 358; numbered along this chain, P55265 (parent)
chain: MAEIKEKICDYLFNVSDSSALNLAKNIGLTKARDINAVLIDMERQGDVYRQGTTPPIWHLTDK

Variants of: B1
Assay: abundance fitness (aPCA) (normalised: wild type 0, dead -1); higher = more abundant; growth selection in yeast, the domain comes from the species named
Settings: Homo sapiens

Abundance fitness, by site and new letter:
E3: S -0.052, R -0.408, C -0.072, T -0.058, K -0.226, N -0.222, G -0.402, P -0.279, A -0.01, V -0.536, W -0.319, D 0.006, F -0.173, I -0.108, H -0.15, M -0.07
V6: E -0.836, D -0.736, G -0.807, F -0.581, A -0.458
H1: R 0.013, L 0.03, N 0.07, S -0.33, K 0.374, Q 0.121, C -0.258, E -0.007, T 0.074, A -0.078, D 0.6, Y 0.262, G 0.277, V -0.035
C4: H -1.23, Y -0.9, A -1.04, I -0.998, L -1.05, M -0.521, T -0.635, K -0.775, N -1.17, S -0.515, F -0.939, V -0.672, G -0.731, P -0.833, Q -1.25, D -0.724, W -0.965
V5: K 0.31, N 0.152, F 0.199, D -0.081, H 0.185, P 0.381, W 0.003, L 0.192, G 0.012, T 0.104, Y 0.393, I 0.314, Q 0.252, E -0.042, A 0.228, R 0.295, S 0.149, C -0.027
I2: K -0.329, A -0.829, G -0.927, V -0.648, W -0.502, E -0.379, Q -0.714, D 0.065, R -0.413, N 0.05, C -0.186, Y 0.237, M -0.078

Variants of: B2
Assay: as above
Settings: Homo sapiens

Abundance fitness of substitutions, site by site:
Y49: V 0.177, N -0.34, H -0.074, M 0.003, T 0.135, G -0.076, L -0.27, R 0.007, C 0.078, S 0.111, F -0.167, P -0.519, E 0.259, I 0.053, Q 0.051, W -0.044, K 0.161
P56: R -0.686, W -0.818, C -0.511, Q -0.541, T -0.013, L -0.656, D -0.447, K -0.539, V -0.099, I -0.263, F -1.13, S -0.57, Y -0.693, M -1.28
W58: H -0.278, I -0.366, C -0.384, K -0.303, N -0.296, Q -0.152, T -0.251, F -0.234, A -0.426, D -0.434, V -0.488, S -0.254, M -0.362, P -0.409, Y -0.095, R -0.242
R50: W -0.722, I -0.798, S -0.019, L -0.684, F -0.601, A -0.238, G -0.453, Y -0.985, E -0.392, K 0.12, N -0.379, T -0.406, H -0.274, M -0.555, D -0.761, Q 0.036, V -0.381
P55: T -0.25, Y -0.491, G -0.434, M -0.632, Q -0.486, N -0.006, E -0.043, A -0.243, W -0.721, R -0.698, F -0.396, K -0.49, L -0.594, S -0.288, I -0.547, H -0.435, V -0.298, C -0.344, D 0.06
T54: G -0.32, N 0.306, Y -0.386, C -0.148, P -0.722, V -0.204, L -0.448, H 0.045, F -0.429, K -0.024, E 0.093, R -0.18, W -0.513, A -0.04, S 0.127
I57: N -0.352, T -0.035, E -0.257, Y -0.846, S -0.265, A -0.316, C -0.567, W -0.476, L -0.281, Q -0.181, R -0.125, F -0.637, G -0.449, M -0.008, V -0.108, D -0.191, H -0.185, P -0.481, K -0.149
L60: A -0.196, T -0.551, E -0.226, F -0.598, C -0.662, V -0.516, R -0.45, K -0.494, N -0.425, Y -0.577, Q -0.764, G -0.436, I -0.628, M -0.295, S -0.437, W -0.793, D -0.356
Q51: T 0.494, F -0.658, K 0.053, W -0.407, G -0.215, C 0.051, I 0.088, D 0.22, V 0.208, E 0.176, S 0.401, H -0.094, N -0.051, P -0.861, A -0.162
G52: V -0.638, H -0.234, A -0.342, T -0.659, M -0.812, I -0.779, N -0.072, Y -0.765, L -0.764, R -0.489, E -0.12, S -0.387, W -0.518, F -0.901, D -0.105, C -0.525, K -0.367
T61: V -0.193, Q -0.52, P -0.411, W -0.808, E -0.483, I -0.818, S -0.052, N -0.124, R -0.282, F -0.737, D -0.32, M -0.182, H -0.344
D62: Q 0.017, I -0.708, Y -0.437, W -0.445, G -0.19, C -0.185, T -0.15, R -0.167, M -0.409, A 0.053, L -0.437, K 0.002, N -0.432, E 0.072, P -0.333, S -0.083
V48: E -0.23, S -0.585, Y -0.862, A -0.284, Q -0.743, K -0.701, W -0.692, D -0.335, H -0.574, C -0.389, I -0.139, N -0.286, T -0.563, P -0.507, F -0.927
T53: I -0.744, R 0.238, A -0.033
H59: E -0.301, Q -0.175, K 0.294, S 0.263, N -0.224, F -0.329, D -0.375, T -0.052, W -0.972, I -0.525, Y -0.466, M -0.259, R 0.281, V -0.282, A 0.288, P -0.524, G 0.215, L -0.613, C 0.095
K63: F -0.217, E -0.234, C -0.258, M -0.619, S -0.367, T -0.297, N -0.302, R 0.032, D -0.162, Q -0.79, H -0.374, P -0.341, Y -0.634, G -0.442
D47: W -0.234, T 0.205, Y -0.068, S -0.114, V 0.288
